Assay results as given in patent publication US20240392039A1 (Regeneron, published 2024).

Legend:
Assay in all cases: cell-based or functional assay
[1] = target: T1, human complement C5 (human, UniProt P01031 19-1676)
[2] = target: T1, human complement C5; remark: listed apart in the source
[3] = target: T1, human complement C5; remark: listed apart in the source

T1 sequence (P01031 19-1676 limits assumed): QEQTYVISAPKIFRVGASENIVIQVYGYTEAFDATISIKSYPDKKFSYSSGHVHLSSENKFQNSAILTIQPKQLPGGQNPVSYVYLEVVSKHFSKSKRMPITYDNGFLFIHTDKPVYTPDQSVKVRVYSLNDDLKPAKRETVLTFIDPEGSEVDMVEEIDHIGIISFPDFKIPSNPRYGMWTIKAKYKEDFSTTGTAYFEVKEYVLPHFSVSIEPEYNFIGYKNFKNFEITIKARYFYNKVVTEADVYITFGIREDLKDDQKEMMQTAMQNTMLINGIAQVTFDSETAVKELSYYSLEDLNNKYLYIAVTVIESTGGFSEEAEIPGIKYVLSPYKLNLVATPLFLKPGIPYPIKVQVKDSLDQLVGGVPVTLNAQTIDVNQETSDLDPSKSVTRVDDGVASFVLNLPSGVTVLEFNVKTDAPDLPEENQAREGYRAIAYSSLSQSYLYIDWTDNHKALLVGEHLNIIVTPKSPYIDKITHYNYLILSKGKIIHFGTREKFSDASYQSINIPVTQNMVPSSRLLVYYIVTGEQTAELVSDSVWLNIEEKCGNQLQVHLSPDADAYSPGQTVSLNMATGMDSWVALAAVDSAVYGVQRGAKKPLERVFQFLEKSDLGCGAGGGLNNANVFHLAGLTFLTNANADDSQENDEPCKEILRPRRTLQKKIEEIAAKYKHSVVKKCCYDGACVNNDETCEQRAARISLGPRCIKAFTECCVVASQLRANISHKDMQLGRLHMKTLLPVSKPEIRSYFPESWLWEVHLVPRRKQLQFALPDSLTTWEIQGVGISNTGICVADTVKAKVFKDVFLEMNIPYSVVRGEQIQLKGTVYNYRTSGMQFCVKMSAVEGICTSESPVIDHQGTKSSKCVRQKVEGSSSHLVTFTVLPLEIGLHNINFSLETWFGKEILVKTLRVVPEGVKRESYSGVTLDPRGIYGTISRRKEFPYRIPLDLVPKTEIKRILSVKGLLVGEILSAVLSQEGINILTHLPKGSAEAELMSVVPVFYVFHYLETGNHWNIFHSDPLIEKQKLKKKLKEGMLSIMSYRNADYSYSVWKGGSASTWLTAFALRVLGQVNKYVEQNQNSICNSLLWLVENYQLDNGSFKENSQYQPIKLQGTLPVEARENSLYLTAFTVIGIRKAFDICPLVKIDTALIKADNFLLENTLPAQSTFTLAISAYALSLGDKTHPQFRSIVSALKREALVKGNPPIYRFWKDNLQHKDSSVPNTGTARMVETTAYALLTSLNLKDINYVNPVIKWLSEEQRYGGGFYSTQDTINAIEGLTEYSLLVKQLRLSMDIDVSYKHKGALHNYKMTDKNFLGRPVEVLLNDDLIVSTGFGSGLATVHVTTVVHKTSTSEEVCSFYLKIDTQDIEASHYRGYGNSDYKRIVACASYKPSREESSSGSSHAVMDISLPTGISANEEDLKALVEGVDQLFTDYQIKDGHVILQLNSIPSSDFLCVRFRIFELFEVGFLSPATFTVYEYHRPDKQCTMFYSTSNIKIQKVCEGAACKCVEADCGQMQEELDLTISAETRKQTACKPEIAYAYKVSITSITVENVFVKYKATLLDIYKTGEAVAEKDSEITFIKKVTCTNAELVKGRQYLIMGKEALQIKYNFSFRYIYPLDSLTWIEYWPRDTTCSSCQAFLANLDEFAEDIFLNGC

B1: H4H12171P (antibody, V domains shown)
VH: EVQLVESGGGVVRPGGSLRLSCAASGFTFDEYGMTWVRQVPGKGLEWVSGITWNGGFTDYTDSVKGRFTSSRDNAKNSLYLQMNSLRAEDTALYYCARDGYSSSWGAYDIWGQGTMVTVSS
VL: DIQMTQSPSSLSASVGDRVTITCRASQSISTYLNWYQQKPGKAPKLLIYAASSLQSGVPLRFSGSGSGTDFTLTISSLQPEDFASYFCQQSYSTPYTFGQGTKLEIK
% Max Inh. of Lysis (alternative pathway hemolysis of rabbit RBC, 25% NHS, 30 min) [1]: 36.6%

B2: H4H12177P2 (antibody, V domains shown)
VH: EVQLVESGGGVVQRGESLRLSCSASDFIFKDYAMYWVRQIPGKGLEWISLISGDGDTTWYGDSVKGRFTISRDNNENSLFLQMNDLRTEDTAMYYCARDMGWNFFQLQYWGQGTLVTVSS
VL: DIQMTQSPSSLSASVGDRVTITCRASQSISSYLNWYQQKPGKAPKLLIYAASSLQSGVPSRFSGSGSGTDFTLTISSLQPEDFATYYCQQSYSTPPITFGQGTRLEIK
% Max Inh. of Lysis (alternative pathway hemolysis of rabbit RBC, 25% NHS, 30 min) [1]: 76.2% | % Max Inh. of Lysis (alternative pathway hemolysis, 25% NHS, 30 min) [2]: 42.6%

B3: H4H12175P (antibody, V domains shown)
VH: EVQLVESGGGVVQPGGSLRLSCAASGFTFNDYAMHWVRQAPGKGLEWVSLISGDGGNTYYADSVKGRLTISRDNSKNSLYLQMNSLRTEDTALYYCAKDKGWNFGYFDLWGRGTLVTVSS
VL: DIQMTQSPSSLSTSVGDRVTITCRASQNIDTYLNWYQQKPGKAPKLLIYDASSLQSGVPSRFSGSGSGTDFTLTITSLQPEDFATYYCQQNDNILHPLTFGGGTKVEIK
% Max Inh. of Lysis (alternative pathway hemolysis of rabbit RBC, 25% NHS, 30 min) [1]: 77.8%

B4: H4H12161P (antibody, V domains shown)
VH: EVQLVESGGDLVQPGGSLRLSCAASGFTFSDHYMDWVRQAPGKGLDWIGRIRNKANAYNTEYAASVRGRFTISRDDSQNLLYLQMNSLKTDDTAVYYCVRVWNYAYFAMDVWGQGTTVTVSS
VL: DIQMTQSPSSLSASVGDRVTITCRSSQNIGIFLNWYQQKPGEAPNLLISAASSLHSGVPSRFSGSGSGTDFTLTIGSLQPEDFATYYCQQTYNTIFTFGPGTKVDIK
% Max Inh. of Lysis (alternative pathway hemolysis of rabbit RBC, 25% NHS, 30 min) [1]: 59.2%

B5: H4H12170P (antibody, IgG4, V domains shown)
VH: QVQLVESGGGVVQPGRSLRLSCAASGFTFSGYGMHWVRQAPGKGLEWVALIWLDGSNDYYADSVKGRFTISRDNSKNTLYLQMNRLRAEDTAVYYCARDGPVAAIPDYWGQGTLVTVSS
VL: DIQMTQSPSTLSASVGDRVTITCRASQSISRWLAWYQLKPGKAPKLLIYKASSLESGVPSRFSGSGSGTDFTLTISSLQPDDFATYYCQQYNTYSYTFGQGTKLEIK
% Max Inh. of Lysis (alternative pathway hemolysis of rabbit RBC, 25% NHS, 30 min) [1]: 88.7%

B6: H4H12176P2 (antibody, V domains shown)
VH: EVQLVESGGGLVQPGGSLRLSCAASGFHSNRYWMDWVRQAPGKGLEWVANIKQDGSEENYVDSVKGRFTISRDNAKNSLYLQMNSLRAEDTAVYYCARDRSTSWVPYWFFDLWGRGTLVTVSS
VL: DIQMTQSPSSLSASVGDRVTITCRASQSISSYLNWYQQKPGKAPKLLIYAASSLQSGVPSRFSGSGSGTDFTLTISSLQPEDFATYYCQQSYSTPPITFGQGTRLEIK
% Max Inh. of Lysis (alternative pathway hemolysis of rabbit RBC, 25% NHS, 30 min) [1]: 62.8% | % Max Inh. of Lysis (alternative pathway hemolysis, 25% NHS, 30 min) [2]: 27.4%

B7: H4H12176P2xH4H12177P2 bispecific antibody (bispecific antibody, V domains shown)
VH 1: EVQLVESGGGLVQPGGSLRLSCAASGFHSNRYWMDWVRQAPGKGLEWVANIKQDGSEENYVDSVKGRFTISRDNAKNSLYLQMNSLRAEDTAVYYCARDRSTSWVPYWFFDLWGRGTLVTVSS
VH 2: EVQLVESGGGVVQRGESLRLSCSASDFIFKDYAMYWVRQIPGKGLEWISLISGDGDTTWYGDSVKGRFTISRDNNENSLFLQMNDLRTEDTAMYYCARDMGWNFFQLQYWGQGTLVTVSS
VL: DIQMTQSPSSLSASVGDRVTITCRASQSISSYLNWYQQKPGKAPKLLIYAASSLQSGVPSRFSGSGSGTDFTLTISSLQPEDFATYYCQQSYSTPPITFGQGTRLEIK
mAb/C5 ratio that blocked hemolysis to close to zero (25% C5-deficient NHS, 145 nM C5 add-back) [3]: ~1.29 mAb/C5 molar ratio | % Max Inh. of Lysis (alternative pathway hemolysis, 25% NHS, 30 min) [2]: 98.1%
